Measurements: publication PMC6063439

Experiment: immunoblot of HEK293 lysate and culture medium
Details: glycan lost; control: wild-type FMOD

B1: fibromodulin (FMOD): FMODΔGAG (protein)
parent chain: MQWTSLLLLAGLFSLSQAQYEDDPHWWFHYLRSQQSTYYDPYDPYPYETYEPYPYGVDEGPAYTYGSPSPPDPRDCPQECDCPPNFPTAMYCDNRNLKYLPFVPSRMKYVYFQNNQITSIQEGVFDNATGLLWIALHGNQITSDKVGRKVFSKLRHLERLYLDHNNLTRMPGPLPRSLRELHLDHNQISRVPNNALEGLENLTALYLQHNEIQEVGSSMRGLRSLILLDLSYNHLRKVPDGLPSALEQLYMEHNNVYTVPDSYFRGAPKLLYVRLSHNSLTNNGLASNTFNSSSLLELDLSYNQLQKIPPVNTNLENLYLQGNRINEFSISSFCTVVDVVNFSKLQVLRLDGNEIKRSAMPADAPLCLRLASLIEI
For B1, which expression_or_secretion is on record?
The expression_or_secretion was “abolishes”.
